Literature values as cited in article PMC10466379.

Legend:
Test in all cases: not stated (values taken from the PKAD database; the article says PKAD values come mainly from NMR or IR titrations)
Settings in all cases: not stated (the curated set excludes proteins with ligands, nucleic acids and structural metal ions)
His46 = His46 (UniProt position 128, TPETKHPKKGV)
His124 [1] = molecular target: His124 (UniProt position 206, NTHEQHLRKSE)
His8 [2] = molecular target: His8 (UniProt position 90, STKKLHKEPAT)
His121 = His121 (UniProt position 203, KPNNTHEQHLR)
Glu103 = Glu103 (UniProt position 185, MVNEAEVRQGL)
Lys39 = Lys39 (UniProt position 39, EFPGGKIEMGE)
His104 = His104 (UniProt position 131, TFPDGHDYKFD)
His150 = His150 (UniProt position 177, LKLCSH-----)
His35 = His35 (UniProt position 62, AESNSHHAPLS)
His92 [3] = molecular target: His92 (UniProt position 119, NGKTDHYLLEF)
His82 = His82 (UniProt position 109, DRPPKHSKDGN)
Glu96 = Glu96 (UniProt position 123, DHYLLEFPTFP)
His60 = His60 (UniProt position 60, NETQTHQQVGN)
Glu66 = Glu66 (UniProt position 148, FTKKMEENAKK)
Glu74 = Glu74 (UniProt position 156, AKKIEEEFDKG)
Glu92 = Glu92 (UniProt position 174, RGLAYEYADGK)
Glu39 = Glu39 (UniProt position 121, FRLLLEDTPET)
His72 = His72 (UniProt position 73, GINTAHKARQV)
His124 [4] = molecular target: His124 (UniProt position 206, NTHEQHLRASE)
His124 [5] = molecular target: His124 (UniProt position 206, NTHEQHLRKAE)
Glu99 = Glu99 (UniProt position 181, ADGKMENEALV)
Glu36 = Glu36 (UniProt position 118, PMTFRELLVDT)
His36 = His36 (UniProt position 63, ESNSHHAPLSD)
His50 = His50 (UniProt position 77, GSSYPHWFTNG)
His137 = His137 (UniProt position 164, CGIIAHTKENQ)
His92 [6] = molecular target: His92 (UniProt position 119, NGKTDHYLLQF)
His8 [7] = molecular target: His8 (UniProt position 90, STKKLHAEPAT)

With “staphylococcal nuclease Y91F (parent PDB 1STN) (Staphylococcus aureus (inferred from PDB 1STN; not stated in the article); Y91F)” as the substance, how does the pKa (His46) read?
The pKa was 6.39.

What about the pKa (His124 [1]) of the same substance?
The pKa was 5.65.

And the pKa (His8 [2])?
The pKa was 6.36.

And the pKa (His121)?
The pKa was 6.04.

Which pKa (Glu103) does the source give for “staphylococcal nuclease variant L103E (parent PDB 2LKV) (Staphylococcus aureus (inferred from PDB 2LKV; not stated in the article); L103E)” here?
Its pKa is 8.9.

For “staphylococcal nuclease D77A (parent PDB 1STN) (Staphylococcus aureus (inferred from PDB 1STN; not stated in the article); D77A)”, which pKa (His46) is on record?
The pKa was 6.43.

And the pKa (His124 [1])?
Its pKa is 5.77.

And the pKa (His8 [2])?
The pKa was 6.44.

And the pKa (His121)?
Its pKa is 5.89.

For “MutT protein (Escherichia coli (inferred from PDB 1MUT; not stated in the article))”, which pKa (Lys39) is on record?
The pKa was 8.4.

What does the source list for “alpha-sarcin H137Q (parent PDB 1DE3) (Aspergillus giganteus (inferred from PDB 1DE3; not stated in the article); H137Q)”?
pKa (His104): 6.6; pKa (His150): 7.7; pKa (His35): 6.3; pKa (His92 [3]): 7.1; pKa (His82): 7.4; pKa (Glu96): 5.7

For “family 11 xylanase (PDB 1H4G) (Bacillus agaradhaerens (inferred from PDB 1H4G; not stated in the article))”, which pKa (His60) is on record?
Its pKa is 4.01.

Which pKa (Glu66) does the source give for “staphylococcal nuclease variant V66E (parent PDB 2LKV) (Staphylococcus aureus (inferred from PDB 2LKV; not stated in the article); V66E)” here?
Its pKa is 8.5.

For “staphylococcal nuclease variant V74E (parent PDB 2LKV) (Staphylococcus aureus (inferred from PDB 2LKV; not stated in the article); V74E)”, which pKa (Glu74) is on record?
Its pKa is 7.8.

For “staphylococcal nuclease variant I92E (parent PDB 2LKV) (Staphylococcus aureus (inferred from PDB 2LKV; not stated in the article); I92E)”, which pKa (Glu92) is on record?
Its pKa is 9.

For “staphylococcal nuclease variant V39E (parent PDB 2LKV) (Staphylococcus aureus (inferred from PDB 2LKV; not stated in the article); V39E)”, which pKa (Glu39) is on record?
The pKa was 8.2.

With “bovine heart phosphotyrosyl phosphatase (low molecular weight PTPase) (Bos taurus)” as the substance, how does the pKa (His72) read?
Its pKa is 9.19.

With “staphylococcal nuclease E101A (parent PDB 1STN) (Staphylococcus aureus (inferred from PDB 1STN; not stated in the article); E101A)” as the substance, how does the pKa (His46) read?
The pKa was 6.4.

What about the pKa (His124 [1]) of the same substance?
Its pKa is 5.04.

And the pKa (His8 [2])?
The pKa was 6.49.

And the pKa (His121)?
Its pKa is 5.26.

Which pKa (His46) does the source give for “staphylococcal nuclease Y93A (parent PDB 1STN) (Staphylococcus aureus (inferred from PDB 1STN; not stated in the article); Y93A)” here?
Its pKa is 6.48.

And the pKa (His124 [1])?
The pKa was 5.68.

What about the pKa (His8 [2]) of the same substance?
The pKa was 6.45.

And the pKa (His121)?
The pKa was 5.94.

For “staphylococcal nuclease D77N (parent PDB 1STN) (Staphylococcus aureus (inferred from PDB 1STN; not stated in the article); D77N)”, which pKa (His46) is on record?
Its pKa is 6.53.

And the pKa (His124 [1])?
Its pKa is 5.81.

What about the pKa (His8 [2]) of the same substance?
The pKa was 6.29.

What about the pKa (His121) of the same substance?
The pKa was 5.77.

With “staphylococcal nuclease Y93F (parent PDB 1STN) (Staphylococcus aureus (inferred from PDB 1STN; not stated in the article); Y93F)” as the substance, how does the pKa (His46) read?
The pKa was 6.42.

What about the pKa (His124 [1]) of the same substance?
The pKa was 5.52.

What about the pKa (His8 [2]) of the same substance?
Its pKa is 6.46.

Which pKa (His46) does the source give for “staphylococcal nuclease K127A (parent PDB 1STN) (Staphylococcus aureus (inferred from PDB 1STN; not stated in the article); K127A)” here?
The pKa was 6.45.

What about the pKa (His8 [2]) of the same substance?
Its pKa is 6.51.

What about the pKa (His121) of the same substance?
The pKa was 5.3.

And the pKa (His124 [4])?
The pKa was 5.99.

Which results are given for “staphylococcal nuclease S128A (parent PDB 1STN) (Staphylococcus aureus (inferred from PDB 1STN; not stated in the article); S128A)”?
pKa (His46): 6.49; pKa (His124 [5]): 5.71; pKa (His8 [2]): 6.53; pKa (His121): 5.25

Which pKa (His46) does the source give for “staphylococcal nuclease E73A (parent PDB 1STN) (Staphylococcus aureus (inferred from PDB 1STN; not stated in the article); E73A)” here?
Its pKa is 6.51.

What about the pKa (His124 [1]) of the same substance?
Its pKa is 5.63.

And the pKa (His8 [2])?
The pKa was 6.47.

And the pKa (His121)?
The pKa was 5.24.

For “staphylococcal nuclease variant V99E (parent PDB 2LKV) (Staphylococcus aureus (inferred from PDB 2LKV; not stated in the article); V99E)”, which pKa (Glu99) is on record?
The pKa was 8.4.

With “staphylococcal nuclease variant L36E (parent PDB 2LKV) (Staphylococcus aureus (inferred from PDB 2LKV; not stated in the article); L36E)” as the substance, how does the pKa (Glu36) read?
The pKa was 8.7.

With “alpha-sarcin H50Q/H137Q (parent PDB 1DE3) (Aspergillus giganteus (inferred from PDB 1DE3; not stated in the article); H50Q;H137Q)” as the substance, how does the pKa (His104) read?
The pKa was 7.3.

And the pKa (His150)?
Its pKa is 7.6.

What about the pKa (His36) of the same substance?
The pKa was 7.3.

What about the pKa (His35) of the same substance?
Its pKa is 6.3.

What about the pKa (His92 [3]) of the same substance?
Its pKa is 7.4.

And the pKa (His82)?
The pKa was 7.

What about the pKa (Glu96) of the same substance?
Its pKa is 5.4.

Which pKa (His50) does the source give for “alpha-sarcin E96Q (parent PDB 1DE3) (Aspergillus giganteus (inferred from PDB 1DE3; not stated in the article); E96Q)” here?
Its pKa is 6.4.

And the pKa (His137)?
The pKa was 5.9.

And the pKa (His150)?
Its pKa is 7.9.

What about the pKa (His36) of the same substance?
The pKa was 7.3.

And the pKa (His92 [6])?
Its pKa is 7.2.

And the pKa (His35)?
The pKa was 6.3.

With “alpha-sarcin H50Q (parent PDB 1DE3) (Aspergillus giganteus (inferred from PDB 1DE3; not stated in the article); H50Q)” as the substance, how does the pKa (His137) read?
Its pKa is 6.1.

What about the pKa (His150) of the same substance?
The pKa was 7.3.

And the pKa (His35)?
Its pKa is 6.2.

What about the pKa (His92 [3]) of the same substance?
Its pKa is 7.3.

What about the pKa (His82) of the same substance?
The pKa was 7.4.

What about the pKa (Glu96) of the same substance?
The pKa was 5.

Which pKa (His46) does the source give for “staphylococcal nuclease Y91A (parent PDB 1STN) (Staphylococcus aureus (inferred from PDB 1STN; not stated in the article); Y91A)” here?
The pKa was 6.52.

What about the pKa (His124 [1]) of the same substance?
The pKa was 5.82.

And the pKa (His8 [2])?
The pKa was 6.42.

And the pKa (His121)?
The pKa was 5.32.

Which results are given for “staphylococcal nuclease K9A (parent PDB 1STN) (Staphylococcus aureus (inferred from PDB 1STN; not stated in the article); K9A)”?
pKa (His46): 6.47; pKa (His124 [1]): 5.67; pKa (His121): 5.48; pKa (His8 [7]): 6.73
